Assay results from patent US20190040477.

Tests used:
[1] = tested on: GST-mRtACPII (S1253A mutant of the second ACP domain of Rhodosporidium toruloides Fas2, residues 1213-1375, as GST fusion protein)
[2] = tested on: GST-mRtACPI (S1062A mutant of the first ACP domain of Rhodosporidium toruloides Fas2, residues 1022-1184, as GST fusion protein)
[3] = tested on: GST-wRtACPI (wild type first ACP domain of Rhodosporidium toruloides Fas2, residues 1022-1184, as GST fusion protein)
[4] = tested on: GST-wRtACPII (wild type second ACP domain of Rhodosporidium toruloides Fas2, residues 1213-1375, as GST fusion protein)

GST-RtPPT (phosphopantetheinyl transferase domain of Rhodosporidium toruloides Fas2, residues 2809-2928, as GST fusion protein)
ΔM (Da): change in molecular weight of the ACP after treatment by PPT, MALDI-TOF mass spectrometry (in vitro phosphopantetheinylation) [1]: 46 Da | ΔM (Da): change in molecular weight of the ACP after treatment by PPT, MALDI-TOF mass spectrometry (in vitro phosphopantetheinylation) [2]: 2 Da | ΔM (Da): gain in molecular weight of the ACP after treatment by PPT, MALDI-TOF mass spectrometry (in vitro phosphopantetheinylation) [3]: 332 Da | ΔM (Da): gain in molecular weight of the ACP after treatment by PPT, MALDI-TOF mass spectrometry (in vitro phosphopantetheinylation) [4]: 322 Da
